Values of other authors in article PMC3734285, “Expression and Function of the Lipocalin-2 (24p3/NGAL) Receptor in Rodent and Human Intestinal Epithelia” (PLoS ONE, 2013).

Test system: megalin

B1: hNGAL: Human lipocalin-2/Neutrophil Gelatinase-Associated Lipocalin, high-affinity ligand of hNGAL-R, from Enzo Life Sciences (protein)
chain: QDSTSDLIPAPPLSKVPLQQNFQDNQFQGKWYVVGLAGNAILREDKDPQKMYATIYELKEDKSYNVTSVLFRKKKCDYWIRTFVPGCQPGEFTLGNIKSYPGLTSYLVRVVSTNYNQHAMVFFKKVSQNREYFKITLYGRTKELTSELKENFIRFSKSLGLPENHIVFPVPIDQCIDG
fold lower affinity of megalin to hNGAL (versus hNGAL-R): ~1000 fold
